Data reported in publication PMC5180179, “Bacteriophage T5 gene D10 encodes a branch-migration protein”.
Numbering of substitutions follows the chain as printed.

How the values were obtained:
[1] = target: T1, D10 helicase (wild type) (Bacteriophage T5, UniProt P11107 1-450); assay: EMSA with nonspecific competitor DNA; no ATP/Mg2+, 1 mM EDTA; EMSA: 0.1 nM DNA, 20 mM HEPES-NaOH pH 7.5, 135 mM NaCl, 0.1% NP40 alternative, 0.1 mg/ml BSA, 2 mM DTT, 1 mM EDTA, 10% glycerol, 22 °C, 20 min; footprinting the same with 10 nM DNA and no glycerol; settings: protein: recombinant; tags: GST tag removed with thrombin; label: 5'-32P; three-way Y-junction, three 20 bp arms, nick in strand A at the junction
T1 sequence: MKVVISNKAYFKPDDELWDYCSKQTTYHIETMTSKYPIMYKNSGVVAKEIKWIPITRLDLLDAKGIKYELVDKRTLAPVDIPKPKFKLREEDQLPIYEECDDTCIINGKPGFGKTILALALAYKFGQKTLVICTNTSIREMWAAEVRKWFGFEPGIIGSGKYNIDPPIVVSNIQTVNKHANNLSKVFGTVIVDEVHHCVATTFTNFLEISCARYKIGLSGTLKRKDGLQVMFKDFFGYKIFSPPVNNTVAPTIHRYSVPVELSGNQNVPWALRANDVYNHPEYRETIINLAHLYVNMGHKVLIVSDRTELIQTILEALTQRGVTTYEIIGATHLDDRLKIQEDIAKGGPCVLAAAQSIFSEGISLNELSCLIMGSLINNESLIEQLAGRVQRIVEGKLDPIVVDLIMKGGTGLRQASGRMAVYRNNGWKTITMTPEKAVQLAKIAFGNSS

[2] = target: T1, D10 helicase (wild type); assay: EMSA with poly d(AT) competitor; no ATP/Mg2+; 0.1 nM DNA, 0.4 nM D10 (all substrate bound); EMSA: 0.1 nM DNA, 20 mM HEPES-NaOH pH 7.5, 135 mM NaCl, 0.1% NP40 alternative, 0.1 mg/ml BSA, 2 mM DTT, 1 mM EDTA, 10% glycerol, 22 °C, 20 min; footprinting the same with 10 nM DNA and no glycerol; settings: protein: recombinant; tags: GST tag removed with thrombin; label: 5'-32P on one strand; three-way Y-junction, three 20 bp arms
[3] = target: T1, D10 helicase (wild type); assay: EMSA with nonspecific competitor DNA; affinity similar to Y20; EMSA: 0.1 nM DNA, 20 mM HEPES-NaOH pH 7.5, 135 mM NaCl, 0.1% NP40 alternative, 0.1 mg/ml BSA, 2 mM DTT, 1 mM EDTA, 10% glycerol, 22 °C, 20 min; footprinting the same with 10 nM DNA and no glycerol; settings: protein: recombinant, tags: GST tag removed with thrombin, label: 5'-32P, three-way Y-junction, three 20 bp arms
[4] = target: T1, D10 helicase (wild type); assay: EMSA with poly d(AT) competitor; no ATP/Mg2+; affinity near identical to Y20; EMSA: 0.1 nM DNA, 20 mM HEPES-NaOH pH 7.5, 135 mM NaCl, 0.1% NP40 alternative, 0.1 mg/ml BSA, 2 mM DTT, 1 mM EDTA, 10% glycerol, 22 °C, 20 min; footprinting the same with 10 nM DNA and no glycerol; settings: protein: recombinant; tags: GST tag removed with thrombin; label: 5'-32P; three-way Y-junction, three 20 bp arms
[5] = target: T1, D10 helicase (wild type); assay: EMSA with poly d(AT) competitor; no ATP/Mg2+; affinity near identical to Y20; bound but not unwound; EMSA: 0.1 nM DNA, 20 mM HEPES-NaOH pH 7.5, 135 mM NaCl, 0.1% NP40 alternative, 0.1 mg/ml BSA, 2 mM DTT, 1 mM EDTA, 10% glycerol, 22 °C, 20 min; footprinting the same with 10 nM DNA and no glycerol; settings: protein: recombinant; tags: GST tag removed with thrombin; label: 5'-32P; three-way Y-junction, three 20 bp arms
[6] = target: T1, D10 helicase (wild type); assay: EMSA; EMSA: 0.1 nM DNA, 20 mM HEPES-NaOH pH 7.5, 135 mM NaCl, 0.1% NP40 alternative, 0.1 mg/ml BSA, 2 mM DTT, 1 mM EDTA, 10% glycerol, 22 °C, 20 min; footprinting the same with 10 nM DNA and no glycerol; settings: protein: recombinant; tags: GST tag removed with thrombin; label: 5'-32P; four-way non-homologous Holliday junction, four 20 bp arms
[7] = target: T2, D10 R389N (Bacteriophage T5, UniProt P11107 1-450, R389N); assay: EMSA; binding equivalent to wild type; not unwound; EMSA: 0.1 nM DNA, 20 mM HEPES-NaOH pH 7.5, 135 mM NaCl, 0.1% NP40 alternative, 0.1 mg/ml BSA, 2 mM DTT, 1 mM EDTA, 10% glycerol, 22 °C, 20 min; footprinting the same with 10 nM DNA and no glycerol; settings: protein: recombinant; tags: GST tag removed with thrombin; label: 5'-32P; four-way non-homologous Holliday junction, four 20 bp arms
T2 sequence: T1 sequence with R389N

B1: Y20-3 (oligo A nicked) (dsDNA)
DNA 1: TTCGAAACGTGCGCGCCCAT
DNA 2: ACGCCAAGCTTAACGGTGAT
DNA 3: ATCACCGTTAAGCTTGGCGTCGAATTCGAGCTCGGTACCC
DNA 4: GGGTACCGAGCTCGAATTCGATGGGCGCGCACGTTTCGAA
binding signal [1]: ~2 fold lower affinity than Y20

B2: Y20 (dsDNA)
DNA 1: TTCGAAACGTGCGCGCCCATACGCCAAGCTTAACGGTGAT
DNA 2: B1 DNA 3
DNA 3: B1 DNA 4
binding result [2]: binds

B3: Y20-1 (oligo C nicked) (dsDNA)
DNA 1: B2 DNA 1
DNA 2: B1 DNA 3
DNA 3: GGGTACCGAGCTCGAATTCG
DNA 4: ATGGGCGCGCACGTTTCGAA
binding result ([3]; nick in strand C at the junction): binds

B4: Y20-2 (oligo B nicked) (dsDNA)
DNA 1: B2 DNA 1
DNA 2: B1 DNA 4
DNA 3: ATCACCGTTAAGCTTGGCGT
DNA 4: CGAATTCGAGCTCGGTACCC
binding result ([3]; nick in strand B at the junction): binds

B5: Y20' (dsDNA)
DNA 1: B2 DNA 1 with C18T, A19C, T20G, C22T
DNA 2: B1 DNA 3 with G19A, C21A, G22C, A23G
DNA 3: GGGTACCGAGCTCGAATCGTCGAGGCGCGCACGTTTCGAA
binding result [4]: binds

B6: Y20'' (dsDNA)
DNA 1: TTCGAAACGTGCGGAATCATACGGGCGGCTTAACGGTGAT
DNA 2: ATCACCGTTAAGCCGCCCGTCGACCAAGAGCTCGGTACCC
DNA 3: GGGTACCGAGCTCTTGGTCGATGATTCCGCACGTTTCGAA
binding result [5]: binds

B7: NHJ20 (dsDNA)
DNA 1: B2 DNA 1
DNA 2: B1 DNA 3
DNA 3: GGGTACCGAGCTCGAATTCGTGGGCGGTGCCCAACGCATA
DNA 4: TATGCGTTGGGCACCGCCCAATGGGCGCGCACGTTTCGAA
binding result [6]: binds | binding result [7]: binds
